B1: Keratin, type I cuticular Ha8 (Homo sapiens), O76015 (parent)
chain: MTSSYSSSSCPLGCTMAPGARNVSVSPIDIGCQPGAEANIAPMCLLANVAHANRVRVGSTPLGRPSLCLPPTCHTACPLPGTCHIPGNIGICGAYGENTLNGHEKETMQFLNDRLANYLEKVRQLEQENAELEATLLERSKCHESTVCPDYQSYFHTIEELQQKILCSKAENARLIVQIDNAKLAADDFRIKLESERSLRQLVEADKCGTQKLLDDATLAKADLEAQQESLKEEQLSLKSNHEQEVKILRSQLGEKLRIELDIEPTIDLNRVLGEMRAQYEAMLETNRQDVEQWFQAQSEGISLQDMSCSEELQCCQSEILELRCTVNALEVERQAQHTLKDCLQNSLCEAEDRFGTELAQMQSLISNVEEQLSEIRADLERQNQEYQVLLDVKTRLENEIATYRNLLESEDCKLPCNPCSTSPSCVTAPCAPRPSCGPCTTCGPTCGASTTGSRF
partner: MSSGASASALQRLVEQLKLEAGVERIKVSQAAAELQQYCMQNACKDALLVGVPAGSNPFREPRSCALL
B2: Keratin, type I cuticular Ha8 (Homo sapiens), O76015 (parent)
chain: B1 chain
partner: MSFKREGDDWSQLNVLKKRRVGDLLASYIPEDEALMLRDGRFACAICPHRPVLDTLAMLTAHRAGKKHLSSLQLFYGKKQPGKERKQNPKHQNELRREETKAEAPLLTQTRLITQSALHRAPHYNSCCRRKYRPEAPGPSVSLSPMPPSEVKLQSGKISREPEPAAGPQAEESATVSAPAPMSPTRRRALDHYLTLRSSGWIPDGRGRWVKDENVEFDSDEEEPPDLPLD
B3: Keratin, type I cuticular Ha8 (Homo sapiens), O76015 (parent)
chain: B1 chain
partner: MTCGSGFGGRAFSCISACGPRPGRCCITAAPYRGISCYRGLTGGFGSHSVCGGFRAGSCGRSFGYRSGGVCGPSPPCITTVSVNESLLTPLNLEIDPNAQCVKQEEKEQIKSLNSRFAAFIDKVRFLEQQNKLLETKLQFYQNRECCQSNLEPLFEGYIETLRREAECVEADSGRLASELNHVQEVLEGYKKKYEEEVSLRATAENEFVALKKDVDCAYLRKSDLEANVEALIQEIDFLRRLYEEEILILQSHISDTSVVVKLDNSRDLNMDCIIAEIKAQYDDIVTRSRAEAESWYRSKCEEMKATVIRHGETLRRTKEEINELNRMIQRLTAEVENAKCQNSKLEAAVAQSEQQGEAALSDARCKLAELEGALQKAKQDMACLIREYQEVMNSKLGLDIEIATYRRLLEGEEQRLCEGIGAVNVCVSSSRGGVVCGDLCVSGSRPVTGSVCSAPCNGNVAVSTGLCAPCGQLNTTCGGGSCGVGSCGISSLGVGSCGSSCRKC
B4: Keratin, type I cuticular Ha8 (Homo sapiens), O76015 (parent)
chain: B1 chain
partner: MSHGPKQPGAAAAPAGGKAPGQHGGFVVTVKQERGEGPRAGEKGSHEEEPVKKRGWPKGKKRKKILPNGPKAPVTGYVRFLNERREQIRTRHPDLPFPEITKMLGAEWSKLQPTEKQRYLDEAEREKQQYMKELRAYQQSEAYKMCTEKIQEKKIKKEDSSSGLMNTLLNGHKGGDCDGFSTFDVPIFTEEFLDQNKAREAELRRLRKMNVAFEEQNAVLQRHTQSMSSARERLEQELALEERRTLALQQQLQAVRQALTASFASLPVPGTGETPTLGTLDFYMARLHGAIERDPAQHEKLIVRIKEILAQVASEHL

Variants of: B1
Settings: with gbg10_human GNG10, P50151

Variant	effect of a mutation on the interaction
MTSSYSSSSCPLGCTMAPGARNVSVSPIDIGCQPGAEANIAPMCLLANVAHANRVRVGSTPLGRPSLCLPPTCHTACPLPGTCHIPGNIGICGAYGENTLNGHEKETMQFLNDRLANYLEKVRQLEQENAELEATLLERSKCHESTVCPDYQSYFHTIEELQQKILCSKAENARLIVQIDNAKLAADDFRIKLESERSLRQLVEADKCGTQKLLDDATLAKADLEAQQESLKEEQLSLKSNHEQEVKILRSQLGEKLRIELDIEPTIDLKRVLGEMRAQYEAMLETNRQDVEQWFQAQSEGISLQDMSCSEELQCCQSEILELRCTVNALEVERQAQHTLKDCLQNSLCEAEDRFGTELAQMQSLISNVEEQLSEIRADLERQNQEYQVLLDVKTRLENEIATYRNLLESEDCKLPCNPCSTSPSCVTAPCAPRPSCGPCTTCGPTCGASTTGSRF [N270K]	with no effect

Variants of: B2
Settings: with scnm1_human SCNM1, Q9BWG6

Variant	effect of a mutation on the interaction
MTSSYSSSSCPLGCTMAPGARNVSVSPIDIGCQPGAEANIAPMCLLANVAHANRVRVGSTPLGRPSLCLPPTCHTACPLPGTCHIPGNIGICGAYGENTLNGHEKETMQFLNDRLANYLEKVRQLEQENAELEATLLERSKCHESTVCPDYQSYFHTIEELQQKILCSKAENARLIVQIDNAKLAADDFRIKLESERSLRQLVEADKCGTQKLLDDATLAKADLEAQQESLKEEQLSLKSNHEQEVKILRSQLGEKLRIELDIEPTIDLNRVLGEMRAQYEAMLETNRQDVEQWFQAQSEGISLQAMSCSEELQCCQSEILELRCTVNALEVERQAQHTLKDCLQNSLCEAEDRFGTELAQMQSLISNVEEQLSEIRADLERQNQEYQVLLDVKTRLENEIATYRNLLESEDCKLPCNPCSTSPSCVTAPCAPRPSCGPCTTCGPTCGASTTGSRF [D306A]	with no effect

Variants of: B2
Settings: with scnm1_human SCNM1, Q9BWG6
Remark: another data set of the same source

Variant	effect of a mutation on the interaction
MTSSYSSSSCPLGCTMAPGARNVSVSPIDIGCQPGAEANIAPMCLLANVAHANRVRVGSTPLGRPSLCLPPTCHTACPLPGTCHIPGNIGICGAYGENTLNGHEKETMQFLNDRLANYLEKVRQLEQENAELEATLLERSKCHESTVCPDYQSYFHTIEELQQKILCSKAENARLIVQIDNAKLAADDFRIKLESERSLRQLVEADKCGTQKLLDDATLAKADLEAQQESLKEEQLSLKSNHEQEVKILRSQLGEKLRIELDIEPTIDLKRVLGEMRAQYEAMLETNRQDVEQWFQAQSEGISLQDMSCSEELQCCQSEILELRCTVNALEVERQAQHTLKDCLQNSLCEAEDRFGTELAQMQSLISNVEEQLSEIRADLERQNQEYQVLLDVKTRLENEIATYRNLLESEDCKLPCNPCSTSPSCVTAPCAPRPSCGPCTTCGPTCGASTTGSRF [N270K]	with no effect

Variants of: B3
Settings: with krt81_human KRT81, Q14533

Variant	effect of a mutation on the interaction
MTSSYSSSSCPLGCTMAPGARNVSVSPIDIGCQPGAEANIAPMCLLANVAHANRVRVGSTPLGRPSLCLPPTCHTACPLPGTCHIPGNIGICGAYGENTLNGHEKETMQFLNDRLANYLEKVRQLEQENAELEATLLERSKCHESTVCPDYQSYFHTIEELQQKILCSKAENARLIVQIDNAKLAADDFRIKLESERSLRQLVEADKCGTQKLLDDATLAKADLEAQQESLKEEQLSLKSNHEQEVKILRSQLGEKLRIELDIEPTIDLNRVLGEMRAQYEAMLETNRQDVEQWFQAQSEGISLQAMSCSEELQCCQSEILELRCTVNALEVERQAQHTLKDCLQNSLCEAEDRFGTELAQMQSLISNVEEQLSEIRADLERQNQEYQVLLDVKTRLENEIATYRNLLESEDCKLPCNPCSTSPSCVTAPCAPRPSCGPCTTCGPTCGASTTGSRF [D306A]	with no effect

Variants of: B3
Settings: with krt81_human KRT81, Q14533
Remark: another data set of the same source

Variant	effect of a mutation on the interaction
MTSSYSSSSCPLGCTMAPGARNVSVSPIDIGCQPGAEANIAPMCLLANVAHANRVRVGSTPLGRPSLCLPPTCHTACPLPGTCHIPGNIGICGAYGENTLNGHEKETMQFLNDRLANYLEKVRQLEQENAELEATLLERSKCHESTVCPDYQSYFHTIEELQQKILCSKAENARLIVQIDNAKLAADDFRIKLESERSLRQLVEADKCGTQKLLDDATLAKADLEAQQESLKEEQLSLKSNHEQEVKILRSQLGEKLRIELDIEPTIDLKRVLGEMRAQYEAMLETNRQDVEQWFQAQSEGISLQDMSCSEELQCCQSEILELRCTVNALEVERQAQHTLKDCLQNSLCEAEDRFGTELAQMQSLISNVEEQLSEIRADLERQNQEYQVLLDVKTRLENEIATYRNLLESEDCKLPCNPCSTSPSCVTAPCAPRPSCGPCTTCGPTCGASTTGSRF [N270K]	with no effect

Variants of: B4
Settings: with hm20b_human HMG20B

Variant	effect of a mutation on the interaction
MTSSYSSSSCPLGCTMAPGARNVSVSPIDIGCQPGAEANIAPMCLLANVAHANRVRVGSTPLGRPSLCLPPTCHTACPLPGTCHIPGNIGICGAYGENTLNGHEKETMQFLNDRLANYLEKVRQLEQENAELEATLLERSKCHESTVCPDYQSYFHTIEELQQKILCSKAENARLIVQIDNAKLAADDFRIKLESERSLRQLVEADKCGTQKLLDDATLAKADLEAQQESLKEEQLSLKSNHEQEVKILRSQLGEKLRIELDIEPTIDLNRVLGEMRAQYEAMLETNRQDVEQWFQAQSEGISLQAMSCSEELQCCQSEILELRCTVNALEVERQAQHTLKDCLQNSLCEAEDRFGTELAQMQSLISNVEEQLSEIRADLERQNQEYQVLLDVKTRLENEIATYRNLLESEDCKLPCNPCSTSPSCVTAPCAPRPSCGPCTTCGPTCGASTTGSRF [D306A]	with no effect

Variants of: B4
Settings: with hm20b_human HMG20B
Remark: another data set of the same source

Variant	effect of a mutation on the interaction
MTSSYSSSSCPLGCTMAPGARNVSVSPIDIGCQPGAEANIAPMCLLANVAHANRVRVGSTPLGRPSLCLPPTCHTACPLPGTCHIPGNIGICGAYGENTLNGHEKETMQFLNDRLANYLEKVRQLEQENAELEATLLERSKCHESTVCPDYQSYFHTIEELQQKILCSKAENARLIVQIDNAKLAADDFRIKLESERSLRQLVEADKCGTQKLLDDATLAKADLEAQQESLKEEQLSLKSNHEQEVKILRSQLGEKLRIELDIEPTIDLKRVLGEMRAQYEAMLETNRQDVEQWFQAQSEGISLQDMSCSEELQCCQSEILELRCTVNALEVERQAQHTLKDCLQNSLCEAEDRFGTELAQMQSLISNVEEQLSEIRADLERQNQEYQVLLDVKTRLENEIATYRNLLESEDCKLPCNPCSTSPSCVTAPCAPRPSCGPCTTCGPTCGASTTGSRF [N270K]	with no effect
